Results from patent publication US20150203577A1 (Chugai, published 2015).
Residue numbers refer to the chain shown, from its start.

T1: mouse FcγRII (mouse, UniProt P08101 30-210)
T1 construct: Extracellular domain with C-terminal His tag; also called mFcγRII; mFcgRII
T1 sequence: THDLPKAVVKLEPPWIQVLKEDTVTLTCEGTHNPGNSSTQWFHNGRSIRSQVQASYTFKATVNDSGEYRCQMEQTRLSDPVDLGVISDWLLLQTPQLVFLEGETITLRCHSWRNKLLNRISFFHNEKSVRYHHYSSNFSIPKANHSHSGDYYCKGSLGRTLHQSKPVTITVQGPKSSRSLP

T2: mouse FcγRIII (mouse, UniProt P08508 31-215)
T2 construct: Extracellular domain with C-terminal His tag; also called mFcγRIII; mFcgRIII
T2 chain: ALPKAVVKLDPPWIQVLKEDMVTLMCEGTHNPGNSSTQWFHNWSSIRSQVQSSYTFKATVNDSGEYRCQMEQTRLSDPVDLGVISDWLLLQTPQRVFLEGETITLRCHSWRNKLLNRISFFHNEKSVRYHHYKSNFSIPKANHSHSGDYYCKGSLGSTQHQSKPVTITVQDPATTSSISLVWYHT

T3: mouse FcγRII extracellular domain with C-terminal His tag (mouse, UniProt P08101 30-210)
T3 construct: Made on the basis of NCBI NP-034317.1; also called mFcγRII; mFcgRII
T3 sequence: T1 sequence

T4: mouse FcγRIII extracellular domain with C-terminal His tag (mouse, UniProt P08508 31-215)
T4 construct: Made on the basis of NCBI NP-034318.2; also called mFcγRIII; mFcgRIII
T4 chain: T2 chain

T5: mouse FcγRIII (mouse, UniProt P08508 31-215)
T5 construct: also called mFcγRIII; mFcgRIII
T5 chain: T2 chain

B1: MB750 (antibody, mouse IgG1, kappa)
heavy: QVQLQESGPGLVKPSETLSLTCAVSGHSISHDHAWSWVRQPPGEGLEWIGFISYSGITNYNPSLQGRVTISRDNSKNTLYLQMNSLRAEDTAVYYCARSLARTTAMDYWGEGTLVTVSSAKTTPPSVYPLAPGSAAQTNSMVTLGCLVKGYFPEPVTVTWNSGSLSSGVHTFPAVLQSDLYTLSSSVTVPSSTWPSETVTCNVAHPASSTKVDKKIVPRDCGCKPCICEPNEVELVFIFPPKPKDVLTITLTPKVTCVVVDISKDDPEVQFSWFVDDVEVHTAQTQPREEQFNSTFRSVSELPIMHQDWLNGKEFKCRVNSDAFPAPIEKTISKTKGRPKAPQVYTIPPPKEQMAKDKVSLTCMITDFFPEDITVEWQWNGQPAENYKNTQPIMDTDGSYFVYSKLNVQKSNWEAGNTFTCSVLHEGLHNHHTEKSLSHSPGK
light: not shown
notes: CH name; VH H237 + CH, L chain MRAL-k0; copies: 2 + 2
B2: H237-MB428/MRAL-k0 (antibody, mouse IgG1, kappa)
heavy: B1 heavy with E229T, N231A, L235D, D322A
light: not shown
notes: copies: 2 + 2
B3: H237-MB427/MRAL-k0 (antibody, mouse IgG1, kappa)
heavy: B1 heavy with E229Q, N231A, L235D, D322A
light: not shown
notes: copies: 2 + 2
B4: H237-MB657/MRAL-k0 (antibody, mouse IgG1, kappa)
heavy: B1 heavy with L235F, D322A
light: not shown
notes: mouse IgG1 CH variant; copies: 2 + 2
B5: H237-MB642/MRAL-k0 (antibody, mouse IgG1, kappa)
heavy: B1 heavy with P230D, N231Y, L235Y, D322A
light: not shown
notes: as for B4
B6: H237-MB436/MRAL-k0 (antibody, mouse IgG1, kappa)
heavy: B1 heavy with E229P, P230T, N231Y, L235D, D322A
light: not shown
notes: copies: 2 + 2
B7: H237-MB434/MRAL-k0 (antibody, mouse IgG1, kappa)
heavy: B1 heavy with E229D, P230T, N231Y, L235D, D322A
light: not shown
notes: copies: 2 + 2
B8: H237-MB429/MRAL-k0 (antibody, mouse IgG1, kappa)
heavy: B1 heavy with E229D, L235D, D322A
light: not shown
notes: copies: 2 + 2
B9: H237-MB636/MRAL-k0 (antibody, mouse IgG1, kappa)
heavy: B1 heavy with P230V, N231Y, L235N, D322A
light: not shown
notes: as for B4
B10: MB749 (antibody, mouse IgG1, kappa)
heavy: B1 heavy with Q291L, D322A
light: not shown
notes: as for B1
B11: H237-MB435/MRAL-k0 (antibody, mouse IgG1, kappa)
heavy: B1 heavy with E229I, P230T, N231Y, L235D, D322A
light: not shown
notes: copies: 2 + 2
B12: H237-MB431/MRAL-k0 (antibody, mouse IgG1, kappa)
heavy: B1 heavy with E229P, L235D, D322A
light: not shown
notes: copies: 2 + 2
B13: MB748 (antibody, mouse IgG1, kappa)
heavy: B1 heavy with S263A, D322A
light: not shown
notes: as for B1
B14: H237-MB438/MRAL-k0 (antibody, mouse IgG1, kappa)
heavy: B1 heavy with E229T, P230T, N231Y, L235D, D322A
light: not shown
notes: copies: 2 + 2
B15: H237-MB433/MRAL-k0 (antibody, mouse IgG1, kappa)
heavy: B1 heavy with E229T, L235D, D322A
light: not shown
notes: copies: 2 + 2
B16: H237-MB430/MRAL-k0 (antibody, mouse IgG1, kappa)
heavy: B1 heavy with E229I, L235D, D322A
light: not shown
notes: copies: 2 + 2
B17: MB752 (antibody, mouse IgG1, kappa)
heavy: B1 heavy with S294L, D322A
light: not shown
notes: as for B1
B18: H237-MB437/MRAL-k0 (antibody, mouse IgG1, kappa)
heavy: B1 heavy with E229Q, P230T, N231Y, L235D, D322A
light: not shown
notes: copies: 2 + 2
B19: MB751 (antibody, mouse IgG1, kappa)
heavy: B1 heavy with D322A, K330R
light: not shown
notes: as for B1

How the values were obtained:
mouse FcγRII [1] = molecular target: T1, mouse FcγRII; test: SPR (Biacore T200); KD of H237-mIgG1/MRAL-k0 / KD of variant
Source text: (§1) The antibody H chain variable region used was the variable region H237 (SEQ ID NO: 1) of the H chain VH3-IgG1 of the anti-IL-6 receptor antibody Fv4-IgG1 described in WO2009/125825. The antibody L chain commonly used was the L chain MRAL-k0 (SEQ ID NO: 2) of the anti-IL-6 receptor antibody tocilizumab. […] These variants were expressed and purified by the method of Reference Example 1 and evaluated for their binding to mFcγRII and mFcγRIII by the method of Reference Example 2 using Biacore T200.
(§2) Each altered antibody was analyzed for its interaction with each Fcγ receptor prepared above using Biacore T100 (GE Healthcare Japan Corp.), Biacore T200 (GE Healthcare Japan Corp.), Biacore A100, or Biacore 4000. The running buffer used was HBS-EP+ (GE Healthcare Japan Corp.). The assay temperature was set to 25° C. The sensor chips used were chips prepared by immobilizing Protein L (ACTIGEN or BioVision) onto Series S Sensor Chip CM5 (GE Healthcare Japan Corp.) or Series S Sensor Chip CM4 (GE Healthcare Japan Corp.) by the amine coupling method.

mouse FcγRIII [2] = molecular target: T2, mouse FcγRIII; test: as above
Source text: as §1, §2

mouse FcγRII [3] = molecular target: T1, mouse FcγRII; test: SPR (Biacore T200); KD of H237-MB630/MRAL-k0 / KD of variant
Source text: as §1, §2
(§3) In order to calculate the KD value of each altered antibody for FcγR, kinetic analysis was conducted according to the following method: first, the antibody of interest was captured onto any of these chips and allowed to interact with mFcγR diluted with a running buffer. For the obtained sensorgram, the assay results were globally fit into the 1:1 Langmuir binding model using Biacore Evaluation Software to calculate an association rate constant ka (L/mol/s) and a dissociation rate constant kd (1/s). From these values, the dissociation constant KD (mol/L) was calculated.

mouse FcγRIII [4] = molecular target: T2, mouse FcγRIII; test: as above
Source text: as §1, §2, §3

[5] = molecular target: T3, mouse FcγRII extracellular domain with …; test: SPR Biacore T200
[6] = molecular target: T4, mouse FcγRIII extracellular domain with …; test: SPR Biacore T200
[7] = molecular target: T3, mouse FcγRII extracellular domain with …; test: SPR Biacore T200; KD mFcγRIII / KD mFcγRII
mouse FcγRIII [8] = molecular target: T5, mouse FcγRIII; test: SPR (Biacore), antibody captured on Protein L, mFcγR as analyte
Procedure: as §2, §3

Row | relative mFcγRII-binding activity (mIgG1 = 1) (mouse FcγRII [1]) | relative mFcγRIII-binding activity (mIgG1 = 1) (mouse FcγRIII [2]) | Relative mFcγRII-binding activity (MB630 = 1) (mouse FcγRII [3]) | Relative mFcγRIII-binding activity (MB630 = 1) (mouse FcγRIII [4]) | Kd [5] | relative mFcγRII-binding activity (mIgG1 = 1) [5] | Kd [6] | relative mFcγRIII-binding activity (mIgG1 = 1) [6] | I/A (mFcγRII selectivity) [7] | relative I/A (mFcγRII selectivity) (mIgG1 = 1) [7] | relative mFcγRIII-binding activity (mIgG1 = 1) (mouse FcγRIII [8]) | Binder
1 | 29.4 fold | 0.4 fold | 1.77 fold | 2.06 fold | – | – | – | – | – | – | – | B1
2 | – | – | – | – | 0.977 nM | 215 | 32 nM | 8.8 | 32.7 | 24.4 | – | B2
3 | – | – | – | – | 0.966 nM | 217 | 40.3 nM | 7 | 41.7 | 31.1 | – | B3
4 | – | – | – | – | – | – | – | – | – | – | 0.09 fold | B4
5 | – | – | – | – | – | – | – | – | – | – | 0.1 fold | B5
6 | – | – | – | – | – | 151 | – | 8.4 | – | 18 | – | B6
7 | – | – | – | – | 0.818 nM | 257 | 18.3 nM | 15.5 | 22.3 | 16.7 | – | B7
8 | – | – | – | – | – | 137 | – | 6.8 | – | 20.3 | – | B8
9 | – | – | – | – | – | – | – | – | – | – | 0.17 fold | B9
10 | 25.3 fold | 0.38 fold | 1.52 fold | 1.96 fold | – | – | – | – | – | – | – | B10
11 | – | – | – | – | – | 146 | – | 8.7 | – | 16.8 | – | B11
12 | – | – | – | – | – | 113 | – | 4.2 | – | 26.8 | – | B12
13 | 11.7 fold | 0.14 fold | 0.7 fold | 0.7 fold | – | – | – | – | – | – | – | B13
14 | – | – | – | – | 0.742 nM | 283 | 17.9 nM | 15.7 | 24.1 | 18 | – | B14
15 | – | – | – | – | 0.694 nM | 303 | 24.4 nM | 11.6 | 35.2 | 26.2 | – | B15
16 | – | – | – | – | 1.02 nM | 207 | 45 nM | 6.3 | 44.3 | 33 | – | B16
17 | 6 fold | 0.09 fold | 0.36 fold | 0.44 fold | – | – | – | – | – | – | – | B17
18 | – | – | – | – | – | 198 | – | 11.5 | – | 17.3 | – | B18
19 | 25.4 fold | 0.32 fold | 1.53 fold | 1.63 fold | – | – | – | – | – | – | – | B19
